Here are results for four molecules from patent US5853984, “Use of nucleic acid ligands in flow cytometry” (NeXstar Pharmaceuticals, Inc.).

For orientation: Kd means the free concentration of one partner at which half of the binding sites on the other are occupied at equilibrium, for simple one-to-one binding.

The target of series [1] is T1, Human neutrophil elastase (HNE) (Homo sapiens) (UniProt P08246).
T1 sequence: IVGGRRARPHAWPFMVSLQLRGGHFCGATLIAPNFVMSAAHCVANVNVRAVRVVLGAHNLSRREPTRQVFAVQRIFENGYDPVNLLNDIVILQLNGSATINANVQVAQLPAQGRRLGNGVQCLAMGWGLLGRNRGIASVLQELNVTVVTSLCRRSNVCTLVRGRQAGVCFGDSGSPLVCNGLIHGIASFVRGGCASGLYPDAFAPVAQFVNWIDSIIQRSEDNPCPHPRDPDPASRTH
The series can be described thus: filter. Particulars: 150 mM NaCl, 100 mM Tris-HCl pH 7.0, 2 mM MgCl2, 6 mM KCl, 0.02% HSA, 37 C.

In series [2] the target is T1, Human neutrophil elastase (HNE) (Homo sapiens). In words: flow. Particulars: HNE on polystyrene beads, 2 mM MgCl2, 1% BSA, room temperature.
The target in series [3] is T2, Human neutrophil elastase (HNE) (Homo sapiens, UniProt P08246 P08246:30-267). In words: flow; HNE on polystyrene beads, 2 mM MgCl2, 1% BSA, room temperature. Particulars: tags: Athens Research and Technology, salt-free lyophilized solid; label: fluorescein; G-quartet with duplex ends.
Method: Beads (0.5% solids) in acetate buffer were coated with HNE (0.5 μg/cm² of bead surface area) for 30 min and then washed and suspended (approx. 5×10⁵ beads/μL) in acetate buffer containing 2% BSA. HNE coated beads were stored at 4° C. until use.
Staining of HNE coated beads was achieved by incubating beads (approx. 3×10⁵) with varying concentrations of fluoresceinated oligonucleotides in 50 μL of binding buffer consisting of 100 mM Tris-HCl (pH 7.0), 0.15M NaCl, 6 mM KCl, 2 mM MgCl₂ and 1% BSA for 30 min at room temperature. The beads were then washed with 2 mL of the same buffer and suspended in 0.5 mL for analysis. Staining with mouse anti-HNE was accomplished in the same method except that bound antibody was detected by a second step fluorescein isothiocyanate (FITC) labeled antibody (X56-FITC). […] Analysis was performed on a FACScan™ flowcytometer (Becton Dickinson). The sensitivity of the flowcytometer was adjusted so that the autofluorescence of the unstained beads was located in the middle of the first decade.
Series [4] addresses T2, Human neutrophil elastase (HNE). The series can be described thus: filter; 150 mM NaCl, 100 mM Tris-HCl pH 7.0, 2 mM MgCl2, 6 mM KCl, 0.02% HSA, 37 C. The following applies: tags: Athens Research and Technology, salt-free lyophilized solid; label: fluorescein; G-quartet with duplex ends.
Series [5] shares this target. The series can be described thus: flow; second-step staining with streptavidin-phycoerythrin; affinity lower than direct fluorescence measurement. Particulars: tags: Athens Research and Technology, salt-free lyophilized solid; label: biotin (streptavidin-phycoerythrin); G-quartet with duplex ends.
Setting [6] is: two internal fluoresceins in extension.
Where [7] appears, read: tail-to-tail dimer via symmetric 3'-3' linker (X) with ethylene glycol linkers and two fluoresceins (LFLXLFL).

On to “GNCACAGTCGACGATACTGCGTGGGTTGGGGCGGGTAGGGCCAGCAGTCTCGTNGACTGRGTC [DNA-EXT]”, for which the Kd came out at 12 nM in series [1] (setting [6]) and 48 nM in series [2] (setting [6]).
Consider “TAGCGATACTGCGTGGGTTGGGGCGGGTAGGGCCAGCAGTCTCGTNNNNNNNTGCTCTGACGACCGGGATGGGCGGGGTTGGGTGCGTCATAGCGAT [DNA-DIMER-TT]”, for which the Kd in series [1] (setting [7]) came out at 3 nM; in series [2] (setting [7]) it was 20 nM.

B1: DNA-LNK-5F (ssDNA)
DNA: TAGCGATACTGCGTGGGTTGGGGCGGGTAGGGCCAGCAGTCTCGT
modifications: 5' fluorescein followed by two hexaethylene glycol spacers [5' fluorescein + two hexaethylene glycol spacers (n1-n3, left out) before T1]
For the molecule B1, the figures for the Kd in series [3] and in series [4] were 110 nM and 12 nM, respectively.
On to TAGCGATACTGCGTGGGTTGGGGCGGGTAGGGCCAGCAGTCTCGTT (ssDNA, biotin attached to 3' end through a linker) [biotinylated DNA ligand], for which, in series [5], the binding result was “binds”.
